Measured values: the supplement of paper PMC9170038

System: MS2 coat protein
Experiment: apparent KD of MS2 coat protein; higher = weaker reporter binding
Conditions: Eterna round: R107
Procedure: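 RNA-MaP round R107: designed RNA switches with theophylline, tryptophan, arginine or FMN aptamers are transcribed on-chip within common flanks. They are titrated with SNAP-549-labelled MS2 coat protein in RNA-MaP buffer (100 mM Tris pH 7.5, 80 mM KCl, 4 mM MgCl2), without ligand or with the indicated ligand. Median apparent KD per design.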

[1] = input ligand: theophylline 20 uM
[2] = input ligand: theophylline 2 mM
[3] = input ligand: tryptophan 2.4 mM

Row | Sequence | apparent KD of MS2 coat protein (input ligand: arginine 13.2 mM) [nM] | apparent KD of MS2 coat protein (input ligand: none) [nM] | apparent KD of MS2 coat protein [1] [nM] | apparent KD of MS2 coat protein [2] [nM] | apparent KD of MS2 coat protein [3] [nM]
1 | AAUCGUAAGGCGGCCGCCACUACACAUGAGGAUCACCCAUGUCUCGCGGGCUUGCGUUGGGAUUGUAGGACCGGGCCAGUAAUAA [Exclusion - Tryptophan B (Freestyle 12)] | 19.3 | 26.4 | 37.9 | 23.5 | 21.3
2 | AAUGUAUGGCACAUGAGGAUCACCCAUGUGCGAGGACCGGUACGGCCGCCACUCGGUCCUGGGAACUUAUUACUAUACAUUAAUG [XTryp A #18] | 11.9 | – | 16.9 | 13.1 | –
3 | AAUGUAUUCCACAUGAGGAUCACCCAUGUGCGAGGACCGGUACGGCCGCCACUCGGUGUUGGGAUCUGUUCUGAAUACAUUAAUG [XTryp A #23] | 30.8 | – | 37.5 | 40.3 | –
4 | AAUGUGAAGGCGGCCGCCACUGAUAAUAGACAUGAGGAUCACCCAUGUAUAAAUCCUCAAUAAGACAGGACCGGGCCAUCUACGU [#25 Exclusion Tryptophan B] | 59 | – | 134 | 122 | –
5 | AAUUAAUUAACCGAUACCAGCCAACCAAAACAUGAGGAUCACCCAUGUAAGAAGAAGGGUGGCCCUUGGCAGCGGUUAAUUAAUU | 31.4 | – | 16.7 | – | 30.5
6 | AAUUAUCAGUCGGCCGCCACUGACACAUGAGGAUCACCCAUGUAACUUGGGAUAAAUUUAAUAAACAGGACCGGGACAAAGGCUA [JR_ExcTryptoB_Sub011] | 36.6 | – | 50.7 | 49.9 | –
7 | AAUUAUUUCUCAAUUAUUUAAUCUUCAGAAGGAGCGUGAUGAUUCACAGGUAGGUCGCUGAUGACAUGAGGAUCACCCAUGUAUU [JR_SSArginiA_Sub003] | 30.6 | 30.1 | 31.1 | 29.1 | 27.5
8 | AAUUCCGGGUCGGCCGCCACUGAUAUGGCGAGUCCUCGAACUUACAUGAGGAUCACCCAUGUAAACAGGACCGGGACCGCAUGGG [Exclusion Tryptophan B GF 23] | 16.3 | – | 28.4 | 20.4 | –
9 | AAUUCCUAACAUGAGGAUCACCCAUGUGAAGGAGCGCGGAAUAACGCAGGUAGGUCGCACAUGGAACCGCUGCGAUAGCAGCAAA [MAT - Exclusion Arginine A - Mod of Eli - D29] | 8.66 | 14.4 | 13.3 | 14 | 12.5
10 | AAUUUAAACGGAAGGAGCGUCACUUAAUAUCAACAUGAGGAUCACCCAUGUAAGGGUUGUAGACAGGUAGGUCGCCGUCAUUUGA [JR_AAArginiB_Sub023] | 36.3 | 39.2 | 50.6 | 41.9 | 35.4
11 | AAUUUCGUAGGUAAAAGUUUAGAAACUGAAGGAGCGUGGUAUUACACAGGUAGGUCGCAGAUUUUACAUGAGGAUCACCCAUGUU [JR_SSArginiA_Sub008] | 20.6 | 22.1 | 22 | 21.7 | 22.8
12 | ACAAGAGGGAUGGAUACCAGCGACAUGAGGAUCACCCAUGUAUGAGGAUCAGCCAUGUUAUGCCCUUGGCAGCCACGAACAUCAG [SSAMULLIN] | 27.5 | 21.2 | 30.8 | 125 | 18.2
13 | ACAAGAGGUGGAAGGAGCGGGAGACAUGAGGAUCACCCAUGUGAAGUUUCGAGAGGAUCAUCCCAGGUAGGUCGCCAUGUCGAAA [ojjomullin] | 199 | 41.7 | 84.1 | 228 | 49.7
14 | ACAAUAUUGAGUUUGUCUCAAGUUUCAGAAGGAGCGUGAGGAAUCACAGGUAGGUCGCUGAUAACAUGAGGAUCACCCAUGUAUU [JR_SSArginiA_Sub005] | 26.1 | 35.7 | 43.1 | 45.1 | 35
15 | ACACAAUACAUGAGGAUCACCCAUGUAAAACGAGGACCGGUACGGCCGCCACUCGAAUACAGGAAACCUCGGAAUAUUAAGUGAA [JR_ExcTryptA_Sub001] | 26.9 | – | 64.1 | 95.8 | –
16 | ACACAUGACGCGGCCGCCACUGCAACAUGAGGAUCACCCAUGUCACCCAUGUAUGACAUGAGGAUCAGGACCGGGCGUGUGUGGA [Same State Tryptophan B 3] | 615 | 566 | 491 | 580 | 195
17 | ACACAUGAGGAUCACCCAUGUCCAAUAGAUACCAGUGAUACGGUGCACCCUUGGCAGCUGUUACUGAGUGAUGGUUCCCUCGGAA [Same State Theophylline A GF3] | 48.1 | – | 81.9 | – | 58.7
18 | ACACAUGAGGAUCACCCAUGUGCGCUGGAAGGAGCGCAGAAUCAUGCAGGUAGGUCGCCAGUGCCCUCUACUAAAGGGAAAAGAG [Diatsoceri] | 66.5 | 72 | 120 | 92.9 | 68.5
19 | ACACAUGAGGAUCACCCAUGUUGCAUAGAUACCAGAUAACGUGAGAUCCCUUGGCAGCUAACUGCAUGAACUUGACAUGCAUCAU [Same State Theophylline A 2] | 44.2 | – | 88.7 | – | 53.5
20 | ACACAUGAGGAUCAUCCAUGUGCCCAUGAAGGAGCGUGGGAAACCACAGGUAGGUCGCAUGACAUGAGGAUCACCCAUGUUUAUU [#03 Exclusion - Arginine A] | 66.6 | 204 | 203 | 366 | 209

Row | Sequence | apparent KD of MS2 coat protein (input ligand: arginine 13.2 mM) [nM] | apparent KD of MS2 coat protein (input ligand: none) [nM] | apparent KD of MS2 coat protein [1] [nM] | apparent KD of MS2 coat protein [2] [nM] | apparent KD of MS2 coat protein [3] [nM]
21 | ACACGGGCAUGAGGAUCACCCAUGUAAUAACGAGGACCGGUACGGCCGCCACUCGUGCACCGUGACCUGUACGAAAAGUGCAGGA | 13.6 | 20.8 | 26.5 | 29.5 | 9.98
22 | ACACGUGAGGAUCAUCCAUGUGCCCAUGAAGGAGCGUGGGAAACCACAGGUAGGUCGCAUGACAUGAGGAUCACCCAUGUUUAUU [#04 Exclusion - Arginine A] | 43.1 | 86.9 | 109 | 105 | 91
23 | ACAUCCAGGUUAAUCGUGGGCAUACUCGAUACCAGUAUUUUAAUCUACCCUUGGCAGCGACAUGAGGAUCACCCAUGUGCGAUGA [XTheo A #12] | 11.7 | – | 14.1 | – | 13.4
24 | ACAUGAAGAACAGCGGUGGGCGCGCUCGAUACCAGUACUUUAAAAUACCCUUGGCAGCGACAUGAGGAUCACCCAUGUGAGAUGA [XTheo A #4] | 15.3 | – | 18.5 | – | 18.5
25 | ACAUGAGGAUCACCCAUGUAAAUAACGGAAGGAGCGUGCGAAAGCACAGGUAGGUCGCCGAUAUAAAUAUUGGGUAUUAUAUUAU [#28 Exclusion - Arginine A] | 17.8 | 31.8 | 47.1 | 29.1 | 28.8
26 | ACAUGAGGAUCACCCAUGUAAAUCCUCGAUACCAGCCAAAGGAGAGGCCCUUGGCAGCGGAAAGGCCGGGUAUAAAUGUCCGGCC | 71.6 | – | 151 | – | 125
27 | ACAUGAGGAUCACCCAUGUAACAACGGGAAGGAGCGCCAAACAAGGCAGGUAGGUCGCCCACAUGAGGAUCACCCAUGUGUUGGG [Exclusion Arginine A GF 27] | 30.7 | 30 | 40.7 | 39.1 | 28.8
28 | ACAUGAGGAUCACCCAUGUAAUAAUCAGAAGGAGCGUGGAAUAACACAGGUAGGUCGCUGAUGUUUUGUUAAAAUUAUUCGUGAA [JR_SSArginiA_Sub002] | 11.7 | 13.5 | 16.9 | 12.9 | 14.3
29 | ACAUGAGGAUCACCCAUGUAAUGGCACGAUACCAGCUGAUCCCGUGGCCCUUGGCAGCGUCCGGUGUGGUCCGGCGGGUUGGACG [LLLMULLIN] | 14.5 | 14.5 | 22.6 | 34.5 | 17.4
30 | ACAUGAGGAUCACCCAUGUACAUCACCCGACGAGGACCGGUACGGCCGCCACUCGGGUAUAUAUAUACAUCGGGUGAUUUUACGU [#22 Tryptophan A Same State] | 27.4 | – | 57.4 | 64.1 | –
31 | ACAUGAGGAUCACCCAUGUACAUCACCCGACGAGGACCGGUACGGCCGCCACUCGGGUAUAUAUAUACAUCGGGUGGUUUUGCAU [a15jan] | 40.7 | – | 88.4 | 40 | –
32 | ACAUGAGGAUCACCCAUGUACAUGAGGGAAGGAGCGGUACAUGUACCAGGUAGGUCGCCCAACAGCAUCAGCCAUGUACAUCAGC [ggvmullin] | 31.4 | 76.1 | 102 | 90.4 | 69
33 | ACAUGAGGAUCACCCAUGUAGCGUAGGGAAGGAGCGGAAUAGAGUCCAGGUAGGUCGCCCAUAUGAUGAUCUCACUUAUUAUCGA [#13 Same State - Arginine A] | 39.1 | 21.1 | 36.7 | 40.8 | 22.9
34 | ACAUGAGGAUCACCCAUGUAUGACUAUCCUCGAGGACCGGUACGGCCGCCACUCGAACGAGUGGCUCGCGAGUGCGCACUUGCGA [5' end] | 16.7 | 13.2 | 16.7 | 12.7 | 11.9
35 | ACAUGAGGAUCACCCAUGUAUGAUGUUCCUCGAGGACCGGUACGGCCGCCACUCGAACGAGUGGCGCGCGAGCGCGCGCUCGCGC [aVa] | 14 | 15.6 | 27.2 | 17.3 | 15.2
36 | ACAUGAGGAUCACCCAUGUAUGAUGUUCCUCGAGGACCGGUACGGCCGCCACUCGAACGAGUGGCGCGCGAGUGCGCACUCGCGC [aWa] | 21.1 | 15.7 | 38.8 | 16.8 | 14.1
37 | ACAUGAGGAUCACCCAUGUAUGGCGCGGAAGGAGCGUGAUUAAGCACAGGUAGGUCGCUGCGUUGAUCGAGCGUUAGCUCGAUAA [SSArg A #9] | 15.8 | 19 | 25.1 | 22.4 | 22.3
38 | ACAUGAGGAUCACCCAUGUAUUACCGGGAAGGAGCGCGUGAAAACGCAGGUAGGUCGCUCGGCGUCGUGCUGUAAAGCACGACGA [#1 Same State - Arginine A Attempt #25 (HarryS)] | 13.3 | 11.5 | 16.2 | 15.6 | 13.4
39 | ACAUGAGGAUCACCCAUGUAUUCAUCAGAAGGAGCGUGGAAUAACACAGGUAGGUCGCUGAUUAUUUGUUAAAUAAAAUCGUGUA [JR_Nu_SSArginiA_Sub022] | 12.5 | 17.3 | 20.6 | 17.1 | 18.3
40 | ACAUGAGGAUCACCCAUGUCAGGGCACGAUACCAGCUGAUCCGAUGGCCCUUGGCAGCGUGACGUGUGGUCAUGAGGAUCACCCG [kvfmullin] | 139 | – | 209 | – | 182
